The results in this text go back to patent US20200283729A1.

Experiment [1] deals with Folate receptor alpha on cells (SKOV3, A1847, T47D, 293T, IOSE6) (human) (UniProt P15328). Kind of experiment: cell-based or functional assay.
Experiment [2] deals with biotin-labeled recombinant FRa protein (R&D Systems, Inc) (UniProt P15328). Kind of experiment: flow cytometry; transduced primary human T cells stained with biotin-labeled recombinant FRA protein, then SA-PE; plotted against CD8.
The target of experiment [3] is Recombinant mesothelin-extracellular domain protein on beads (UniProt Q13421). Description: cell-based or functional assay.
Chain of Recombinant mesothelin-extracellular domain protein on beads (Q13421 other isoform, or with tags, fused parts or gaps limits assumed): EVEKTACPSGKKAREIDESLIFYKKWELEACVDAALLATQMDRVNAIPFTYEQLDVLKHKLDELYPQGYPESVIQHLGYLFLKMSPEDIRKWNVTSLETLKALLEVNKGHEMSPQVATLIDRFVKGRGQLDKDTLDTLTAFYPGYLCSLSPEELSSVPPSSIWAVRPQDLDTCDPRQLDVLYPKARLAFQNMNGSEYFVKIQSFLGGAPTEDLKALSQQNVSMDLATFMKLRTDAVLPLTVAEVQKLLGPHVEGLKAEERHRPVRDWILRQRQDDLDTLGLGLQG
Experiment [4] deals with CD19-BBZ CAR on T cells. Description: flow cytometry; T cells one day after CD19-BBZ CAR mRNA electroporation, stained with anti-mouse IgG Fab antibody. (In general: Flow cytometry measures light scatter and fluorescence of single cells or particles in a stream.)

Chain of biotin-labeled recombinant FRa protein (R&D Systems, Inc) (P15328 25-233 limits assumed): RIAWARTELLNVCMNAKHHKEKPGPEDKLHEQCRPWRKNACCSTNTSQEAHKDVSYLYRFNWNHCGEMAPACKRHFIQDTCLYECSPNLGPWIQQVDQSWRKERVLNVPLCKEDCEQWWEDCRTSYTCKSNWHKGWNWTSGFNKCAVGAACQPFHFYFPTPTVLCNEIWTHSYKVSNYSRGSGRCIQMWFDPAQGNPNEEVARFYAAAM
Chain of Folate receptor alpha on cells (SKOV3, A1847, T47D, 293T, IOSE6) (human) (P15328 25-234, stated change not applied): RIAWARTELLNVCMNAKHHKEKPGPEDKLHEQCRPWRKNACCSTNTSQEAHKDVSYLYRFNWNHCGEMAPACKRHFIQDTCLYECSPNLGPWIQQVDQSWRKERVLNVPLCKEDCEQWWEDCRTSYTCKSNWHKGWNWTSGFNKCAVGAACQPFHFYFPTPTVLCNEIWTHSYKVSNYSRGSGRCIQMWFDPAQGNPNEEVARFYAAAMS

With MOv19-27z CAR on human T cells, the surface CAR expression after exposure to SKOV3 cells in experiment [1] was 1 % of T cells. Moreover, in experiment [2], the percent of cells CD8+ and FRA CAR+ (upper right quadrant) amounted to 41.2%; the percent of cells CD8- and FRA CAR+ (lower right quadrant) came out at 31.3%.

As to “anti-mesothelin CAR (mesoCAR, SS1 BBZ) on wild-type mouse T cells”, in experiment [3], the % IFN-γ cytokine-producing cells after 6 hours with coated beads (flow cytometry) is 7%.

In experiment [4], “anti-mouse IgG Fab antibody (detection reagent for the 19BBZ panel)” gave a percent of cells in the CAR-positive gate of 98.5.
